Several values for one entry are separate records, joined by “and”; a condition that tells them apart may be missing. Equal values may be shown once.

The text below walks through data of US20210284729A1.

The assay addresses 4-1BB (CD137) on T cells (human) (UniProt Q07011). Put plainly: cell-based or functional assay.

Sequence of 4-1BB (CD137) on T cells (human) (Q07011 24-255): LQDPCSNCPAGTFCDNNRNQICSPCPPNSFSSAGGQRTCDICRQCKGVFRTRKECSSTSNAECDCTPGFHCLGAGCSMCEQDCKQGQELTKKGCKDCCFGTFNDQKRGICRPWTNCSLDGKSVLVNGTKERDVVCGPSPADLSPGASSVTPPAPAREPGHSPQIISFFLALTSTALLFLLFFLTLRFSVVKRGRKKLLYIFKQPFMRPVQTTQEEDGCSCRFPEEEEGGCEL

For the substance “co-stimulatory 4-1BB ligand (CD137L) expressed on the surface of gene-modified hMSCs (SCP-1) (from UniProt P41273 1-254)”, the IFN-gamma secretion by T cells (ELISA, 24 h) was > 10 fold; the T cell expansion (T cell number at day 6 to day 0) was 2 fold and 3 fold; the TNF-alpha secretion by T cells (ELISA, 24 h) is < 8 fold; the expansion of autologous AML patient T cells after 96 h of co-culture turned out to be 3 fold.
